Reference: patent publication US20050123977A1, “Assay and treatment” (Ludwig Institute for Cancer Research, priority 2003, published 2005)

B1: iASPP: human iASPP protein (SEQ ID NO: 4), expressed from plasmid; inhibits apoptotic function of p53 (protein, listed as Homo sapiens)
chain: MWMKDPVARPLSPTRLQPALPPEAQSVPELEEVARVLAEIPRPLKRRGSMEQAPAVALPPTHKKQYQQIISRLFHRHGGPGPGGRSQSCPPSLRDLRPGQGPLLLPHQLPFHRPAPSQSSPPEQPQSMEMRSVLRKAGSPRKARRARLNPLVLLLDAALTGELEVVQQAVKEMNDPSQPNEEGITALHNAICGANYSIVDFLITAGANVNSPDSHGWTPLHCAASCNDTVICMALVQHGAAIFATTLSDGATAFEKCDPYREGYADCATYLADVEQSMGLMNSGAVYALWDYSAEFGDELSFREGESVTVLRRDGPEETDWWWAALHGQEGYVPRNYFGLFPRVKPQRSK
B2: ASPP1: human ASPP1 protein (SEQ ID NO: 7), V5-tagged, expressed from CMV-driven plasmid; stimulates apoptotic function of p53 (protein, listed as Homo sapiens)
chain: MMPMILTVFLSNNEQILTEVPITPETTCRDVVEFCKEPGEGSCHLAEVWRGNERPIPFDHMMYEHLQIWGPRREEVKFFLRHEDSPTENSEQGGRQTQEQRTQRNVINVPGDKRTEYGVGNPRVELTLSELQDMAARQQQQIENQQQMLVAKEQRLHFLKQQERRQQQSISENEKLQKLKERVEAQENKLKKIRAMRGQVDYSKIMNGNLSAEIERFSAMFQEKKQEVQTAILRVDQLSQQLEDLKKGKLNGFQSYNGKLTGPAAVELKRLYQELQIRNQLNQEQNSKLQQQKELLNKRNMEVAMMDKRISELRERLYGKKIQLNRVNGTSSPQSPLSTSGRVAAVGPYIQVPSAGSFPVLGDPIKPQSLSIASNAAHGRSKSANDGNWPTLKQNSSSSVKPVQVAGADWKDPSVEGSVKQGTVSSQPVPFSALGPTEKPGIEIGKVPPPIPGVGKQLPPSYGTYPSPTPLGPGSTSSLERRKEGSLPRPSAGLPSRQRPTLLPATGSTPQPGSSQQIQQRISVPPSPTYPPAGPPAFPAGDSKPELPLTVAIRPFLADKGSRPQSPRKGPQTVNSSSIYSMYLQQATPPKNYQPAAHSALNKSVKAVYGKPVLPSGSTSPSPLPFLHGSLSTGTPQPQPPSESTEKEPEQDGPAAPADGSTVESLPRPLSPTKLTPIVHSPLRYQSDADLEALRRKLANAPRPLKKRSSITEPEGPGGPNIQKLLYQRFNTLAGGMEGTPFYQPSPSQDFMGTLADVDNGNTNANGNLEELPPAQPTAPLPAEPAPSSDANDNELPSPEPEELICPQTTHQTAEPAEDNNNNVATVPTTEQIPSPVAEAPSPGEEQVPPAPLPPASHPPATSTNKRTNLKKPNSERTGHGLRVRFNPLALLLDASLEGEFDLVQRIIYEVEDPSKPNDEGITPLHNAVCAGHHHIVKFLLDFGVNVNAADSDGWTPLHCAASCNSVHLCKQLVESGAAIFASTISDIETAADKCEEMEEGYIQCSQFLYGVQEKLGVMNKGVAYALWDYEAQNSDELSFHEGDALTILRRKDESETEWWWARLGDREGYVPKNLLGLYPRIKPRQRTLA
modifications: V5 tag
notes: stimulates apoptotic function of p53
B3: ASPP2: human ASPP2 protein (SEQ ID NO: 8), expressed from CMV-driven plasmid; stimulates apoptotic function of p53 (protein, listed as Homo sapiens)
chain: MMPMFLTVYLSNNEQHFTEVPVTPETICRDVVDLCKEPGESDCHLAEVWCGSERPVADNERMFDVLQRFGSQRNEVRFFLRHERPPGRDIVSGPRSQDPSLKRNGVKVPGEYRRKENGVNSPRMDLTLAELQEMASRQQQQIEAQQQLLATKEQRLKFLKQQDQRQQQQVAEQEKLKRLKEIAENQEAKLKKVRALKGHVEQKRLSNGKLVEEIEQMNNLFQQKQRELVLAVSKVEELTRQLEMLKNGRIDSHHDNQSAVAELDRLYKELQLRNKLNQEQNAKLQQQRECLNKRNSEVAVMDKRVNELRDRLWKKKAALQQKENLPVSSDGNLPQQAASAPSRVAAVGPYIQSSTMPRMPSRPELLVKPALPDGSLVIQASEGPMKIQTLPNMRSGAASQTKGSKIHPVGPDWSPSNADLFPSQGSASVPQSTGNALDQVDDGEVPLREKEKKVRPFSMFDAVDQSNAPPSFGTLRKNQSSEDILRDAQVANKNVAKVPPPVPTKPKQINLPYFGQTNQPPSDIKPDGSSQQLSTVVPSMGTKPKPAGQQPRVLLSPSIPSVGQDQTLSPGSKQESPPAAAVRPFTPQPSKDTLLPPFRKPQTVAASSIYSMYTQQQAPGKNFQQAVQSALTKTHTRGPHFSSVYGKPVIAAAQNQQQHPENIYSNSQGKPGSPEPETEPVSSVQENHENERIPRPLSPTKLLPFLSNPYRNQSDADLEALRKKLSNAPRPLKKRSSITEPEGPNGPNIQKLLYQRTTIAAMETISVPSYPSKSASVTASSESPVEIQNPYLHVEPEKEVVSLVPESLSPEDVGNASTENSDMPAPSPGLDYEPEGVPDNSPNLQNNPEEPNPEAPHVLDVYLEEYPPYPPPPYPSGEPEGPGEDSVSMRPPEITGQVSLPPGKRTNLRKTGSERIAHGMRVKFNPLALLLDSSLEGEFDLVQRIIYEVDDPSLPNDEGITALHNAVCAGHTEIVKFLVQFGVNVNAADSDGWTPLHCAASCNNVQVCKFLVESGAAVFAMTYSDMQTAADKCEEMEEGYTQCSQFLYGVQEKMGIMNKGVIYALWDYEPQNDDELPMKEGDCMTIIHREDEDEIEWWWARLNDKEGYVPRNLLGLYPRIKPRQRSLA

Columns and labels:
p53Pro72 [1] = target: T1, p53Pro72 (Homo sapiens, UniProt P04637); assay: Transactivation assay (luciferase reporter), p53Pro72; assay type: cell-based; conditions: Saos-2 cells; for transcriptional activity of p53Pro72 on Bax promoter: co-transfection
T1 construct: expressed in transfected cells; host or cells: Saos-2 or H1299 cells
Experimental: (§1) Saos-2 or H1299 cells (5×10^5) were plated 24 hours prior to transfection in 6 cm dishes. All transactivation assays contained 1 μg of reporter plasmid. 50 ng of p53Pro72 or p53Arg72, 4 μg of ASPP1 or ASPP2, 2 μg of iASPP expression plasmids were used as indicated. In FIG. 4C cells were also co-transfected with 3 μg of pSuper plasmid containing iASPP RNAi as indicated. Cells were lysed in Reporter Lysis Buffer 16-24 hours after transfection and assayed using the Luciferase Assay kit (Promega, Wis., USA). The fold activation of a particular reporter was determined by the activity of the transfected plasmid divided by the activity of vector alone.

p53Pro72 [2] = target: T1, p53Pro72; assay: Flow cytometry apoptosis assay, p53Pro72; assay type: cell-based
Experimental: Cells (10^6) were plated 24-48 hours prior to transfection in 10 cm plates. All cells were transfected with 2 μg of a plasmid expressing CD20 as a transfection marker. Transfection consisted of 1 μg of human p53Pro72 or p53Arg72, 10 μg of ASPP1 or ASPP2, 4 μg of iASPP and 8 μg of pSuper plasmid containing RNAi of iASPP as indicated. 36 hours after the transfection, both attached and floating cells were harvested and analysed as described.

p53Pro72 and p53Arg72 = conditions: RKO cells heterozygous for p53Pro72/p53Arg72
Experimental: For western blotting, cells were lysed in either NP40 lysis buffer or luciferase reporter lysis buffer. Between 15-100 μg of protein extract was loaded on SDS-PAGE gels. For immunoprecipitation, cells were lysed in NP40 lysis buffer and pre-cleared with protein G beads for 1 hour at 4° C. The protein concentration was determined and then 1-2 mg of the extract was incubated with antibody pre-bound to protein G beads for 4 hours or overnight at 4° C. The beads were washed twice in NP40 lysis buffer and twice in NET buffer. The IP beads were mixed with 5× sample buffer and loaded onto an SDS-PAGE gel. The gels were wet transferred on to Protran nitrocellulose membrane and the resulting blots were first incubated with primary antibody and subsequently with the appropriate secondary HRP conjugated antibody (Dako). The blot was exposed to hyperfilm following the use of ECL substrate solution (Amersham Life Science).
p53Pro72, p53Arg72, ASPP1, ASPP2 and iASPP were in vitro translated and labelled with ^35S -Methionine using the TNT T7 Quick coupled Transcription/Translation System (Promega). The lysates containing indicated proteins were incubated at 30° C. for 1 hour. The anti-ASPP1, ASPP2 or iASPP antibodies immobilised on protein G agarose beads were added to the binding reactions and incubated on a rotating wheel at 4° C. for 16 hours. The beads were then washed with PBS. The bound proteins were released in SDS gel sample buffer and analysed by 10% SDS-polyacrylamide gel electrophoresis (PAGE). Results were visualised using autoradiography for ^35S -Methionine labelled proteins. For immunoprecipitation using cell lysates, the expression of endogenous ASPP1, ASPP2, iASPP, p53Pro72 and p53Arg72 were detected by western blot using antibodies specific to these proteins derived from different species from that used in IP.

p53Arg72 = target: T2, p53Arg72 (Homo sapiens, UniProt P04637, P72R); assay: Transactivation assay (luciferase reporter), p53Arg72; assay type: cell-based; conditions: Saos-2 cells, Bax promoter, co-transfection
T2 construct: expressed in transfected cells; host or cells: Saos-2 or H1299 cells
Experimental: as §1

| Molecule | transactivation function of p53Pro72 (p53Pro72 [1]; promoter not stated in text (FIG. 2C)) | apoptotic function of p53Pro72 (p53Pro72 [2]; Saos-2 cells) | co-immunoprecipitation of p53Pro72 compared with p53Arg72 (p53Pro72 and p53Arg72) | transcriptional activity of p53Pro72 on Bax promoter (p53Pro72 [1]) | apoptotic function of p53Pro72 (p53Pro72 [2]; H1299 cells) | transactivation function of p53Arg72 (p53Arg72) |
| --- | --- | --- | --- | --- | --- | --- |
| B1 | selectively inhibited | selectively inhibited | clearly larger |  |  |  |
| B2 |  | selectively enhance | to a lesser extent | significantly enhanced | enhanced | very little effect |
| B3 |  | selectively enhance | Selective binding | significantly enhanced | enhanced | very little effect |
